Broadly, the Kd is the free concentration of one partner at which half of the binding sites on the other are occupied at equilibrium, for simple one-to-one binding. The EC50 is the concentration at which the effect is half-maximal. A word on the IC50: it is the midpoint of a concentration-inhibition curve. Higher therefore signals weaker potency.

This passage reports Kd, EC50 and IC50 results from US12723105 (dated 2026).

The target in experiment [1] is Human serum albumin (UniProt P02768 25-609). The experiment can be described thus: Octet BLI. A general note: BLI is a label-free optical method that tracks binding on a fibre tip over time.
Experiment [2] deals with human CD47 (R & D systems) (UniProt Q08722 19-139). The experiment can be described thus: flow cytometry, CD47-overexpressing cells; HCAb.
In experiment [3] the target is T1, CD47 natively expressed on tumor cell surface (Jurkat, HL60 cells) (human, UniProt Q08722 19-323). The experiment is described as follows: competitive flow cytometry vs SIRPα-Fc; Jurkat cells.
Experiment [4] has as its target CD47-Fc (R&D systems) (UniProt Q08722 19-139). The experiment is described as follows: competitive ELISA vs SIRPα. For orientation: In an ELISA, binding on a coated surface is turned into a signal by an enzyme label.
The target in experiment [5] is T1, CD47 natively expressed on tumor cell …. The experiment is described as follows: flow cytometry; HL-60 cells.
For experiment [6], the target named is PD-L1 on PD-L1-expressing APC/CHO-K1 cells (UniProt Q9NZQ7 19-290). The experiment is described as follows: flow cytometry, PD-L1 CHO cells; HCAb. For orientation: Flow cytometry measures light scatter and fluorescence of single cells or particles in a stream.
PD-L1 on PD-L1-expressing APC/CHO-K1 cells, sequence (Q9NZQ7 19-290): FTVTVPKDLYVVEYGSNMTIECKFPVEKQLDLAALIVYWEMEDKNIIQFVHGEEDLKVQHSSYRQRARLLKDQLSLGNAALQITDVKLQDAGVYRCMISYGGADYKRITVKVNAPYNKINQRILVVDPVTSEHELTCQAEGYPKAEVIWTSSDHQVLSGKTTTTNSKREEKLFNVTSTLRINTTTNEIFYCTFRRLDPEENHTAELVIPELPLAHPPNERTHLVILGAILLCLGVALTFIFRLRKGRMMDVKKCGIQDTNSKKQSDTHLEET

B1: HS27 (VHH)
VHH: EVQLVESGGGLVQPGGSLRLSCAASGRTFSPYTMGWFRQASGKERESVAATTWTGSRSYYGESVKGRFTISRDSTKNTMSLQMNSLKPEDTAVYYCAAADGAGLYTNRGQYDYWGQGTQVTVSS
As to B1, binding in experiment [1] was put at a Kd of 1.14 nM.

B2: A09-10 (antibody, V domains shown)
VH: QVQLVESGGGLVQAGGSLRLSCAASGGGRTFSNYALGWFRQAPGKEREFVAAISRSGGNINYADSAKGRFTISRDNFKNTTYLQMSSLKPEDTAVYYCAAHYLLLPSYISTSTNMYNYWGQGTQVTVSS
The molecule B2 returned an EC50 in experiment [2] of 0.36 nM.

B3: multi-specific molecule 1511 (CD16F1-L1-hHS10-L1-hA09-10-2-L3-A09-10-L1-hPL16-L3-hPL16) (bispecific antibody)
chain: EVQLVESGGGLVQPGGSLRLSCAVSGSLFSARVMGWYRQAPGKQRELVAAITSGVRTDYADSVKGRFTISRDNAKRAVYLQMNSLKPEDTAVYYCNVNLYNTGNYWGQGTQVTVSSGGGGSGGGSEVQLVESGGGLVQPGGSLRLSCAASGSTDSAYRMGWFRQAPGKEREFVSAINWSDGRTYYADSVKGRFTISRDNSKNTLYLQMNSLRAEDTAVYYCAADPDSRLYYTVPQNYDYWGQGTLVTVSSGGGGSGGGSEVQLVESGGGLVQPGGSLRLSCAASGGGRTFSNYALGWFRQAPGKEREFVAAISRSGGNINYADSVKGRFTISRDNFKNTTYLQMSSLEPEDTAVYYCAAHYLLLPSYISTSTNMYNYWGQGTQVTVSSAAAQVQLVESGGGLVQAGGSLRLSCAASGGGRTFSNYALGWFRQAPGKEREFVAAISRSGGNINYADSVKGRFTISRDNFKNTTYLQMSSLEPEDTAVYYCAAHYLLLPSYISTSTNMYNYWGQGTQVTVSSGGGGSGGGSEVQLVESGGGLVQPGGSLRLSCAASGGTFLTYSMSWVRQAPGKEREFVSSINWSGYMTYYADSVKGRFTISRDNSKNTLYLQMNSLRAEDTAVYYCAAARTAIAAKRSSEFDYWGQGTQVTVSSAAAEVQLVESGGGLVQPGGSLRLSCAASGGTFLTYSMSWVRQAPGKEREFVSSINWSGYMTYYADSVKGRFTISRDNSKNTLYLQMNSLRAEDTAVYYCAAARTAIAAKRSSEFDYWGQGTQVTVSS
For B3, the concentration for half-maximal inhibition (IC50) came out at 1.28 nM in experiment [3] and 0.453 nM in experiment [4]. Further, it took 26.2 nM to reach a half-maximal effect in experiment [5] (EC50).

B4: PL14 (antibody, V domains shown)
VH: EVQLVESGGGLVQAGGSLRLSCAASGSTSGIYDMGWYRQAPGKLREVVGIITSGGTTNYADFAKGRFTISRDNAKNMMYLQMNSLKPEDTAVYYCNIRTRLIIWGQGTQVTVSS
For the molecule B4, in experiment [6], the EC50 amounted to 2.09 nM.

B5: multi-specific molecule 3321 (CD16F1-L1-hHS10-L1-hA09-10-3-L3-hA09-10-4-L1-H33-14-L3-H33-14) (other)
chain: EVQLVESGGGLVQPGGSLRLSCAVSGSLFSARVMGWYRQAPGKQRELVAAITSGVRTDYADSVKGRFTISRDNAKRAVYLQMNSLKPEDTAVYYCNVNLYNTGNYWGQGTQVTVSSGGGGSGGGSEVQLVESGGGLVQPGGSLRLSCAASGSTDSAYRMGWFRQAPGKEREFVSAINWSDGRTYYADSVKGRFTISRDNSKNTLYLQMNSLRAEDTAVYYCAADPDSRLYYTVPQNYDYWGQGTLVTVSSGGGGSGGGSEVQLVESGGGLVQPGGSLRLSCAASGGGRTFSNYALGWFRQAPGKEREFVAAISRSGGNINYADSVKGRFTISRDNFKNTVYLQMSSLRAEDTAVYYCAAHYLLLPSYISTSTNMYNYWGQGTQVTVSSAAAQVQLVESGGGLVQPGGSLRLSCAASGGGRTFSNYALGWFRQAPGKEREFVAAISRSGGNINYADSVKGRFTISRDNAKNTVYLQMSSLRAEDTAVYYCAAHYLLLPSYISTSTNMYNYWGQGTQVTVSSGGGGSGGGSQVQLVESGGGLVQPGGSLRLSCAASGRTSLILAMAWWRQAPGKEREFAGRIWWNNDMTRYSDSVKGRFTISRDNAKNTVYLQMSSLRAEDTAVYYCEADLIGGSRGWGQGTLVTVSSAAAQVQLVESGGGLVQPGGSLRLSCAASGRTSLILAMAWWRQAPGKEREFAGRIWWNNDMTRYSDSVKGRFTISRDNAKNTVYLQMSSLRAEDTAVYYCEADLIGGSRGWGQGTLVTVSS
With B5, the half-inhibitory concentration (IC50) in experiment [3] was 0.935 nM; in experiment [4] it was 0.267 nM. Moreover, in experiment [5], the half-maximal effective concentration (EC50) came out at 0.182 nM.

B6: PL16 (antibody, V domains shown)
VH: QVQLVESGGGLVQAGGSLRLSCAFSGGTFLTYSLGWFRQGPGKEREFVASINWSGYMTSYVDSVKGRFTISRDNAKNTVYLQMNSLKPEDTALYYCAAARTAIAAKRSSEFDYWGQGAQVTVSS
The molecule B6 registered an EC50 in experiment [6] of 1.78 nM.
